{"source": "paper doi:10.1101/2021.06.09.447781", "about": "(bioRxiv, 2021)", "proteins": {"B1": {"name": "B. subtilis ClpCDWB (E280A/E618A), catalytically inactive mutant (enzyme, UniProt P37571 1-810, looked up)", "chain": "MMFGRFTERAQKVLALAQEEALRLGHNNIGTEHILLGLVREGEGIAAKALQALGLGSEKIQKEVESLIGRGQEMSQTIHYTPRAKKVIELSMDEARKLGHSYVGTEHILLGLIREGEGVAARVLNNLGVSLNKARQQVLQLLGSNETGSSAAGTNSNANTPTLDSLARDLTAIAKEDSLDPVIGRSKEIQRVIEVLSRRTKNNPVLIGEPGVGKTAIAEGLAQQIINNEVPEILRDKRVMTLDMGTVVAGTKYRGEFEDRLKKVMDEIRQAGNIILFIDALHTLIGAGGAEGAIDASNILKPSLARGELQCIGATTLDEYRKYIEKDAALERRFQPIQVDQPSVDESIQILQGLRDRYEAHHRVSITDDAIEAAVKLSDRYISDRFLPDKAIDLIDEAGSKVRLRSFTTPPNLKELEQKLDEVRKEKDAAVQSQEFEKAASLRDTEQRLREQVEDTKKSWKEKQGQENSEVTVDDIAMVVSSWTGVPVSKIAQTETDKLLNMENILHSRVIGQDEAVVAVAKAVRRARAGLKDPKRPIGSFIFLGPTGVGKTELARALAESIFGDEESMIRIDMSEYMEKHSTSRLVGSPPGYVGYDEGGQLTEKVRRKPYSVVLLDAIEKAHPDVFNILLQVLEDGRLTDSKGRTVDFRNTILIMTSNVGASELKRNKYVGFNVQDETQNHKDMKDKVMGELKRAFRPEFINRIDEIIVFHSLEKKHLTEIVSLMSDQLTKRLKEQDLSIELTDAAKAKVAEEGVDLEYGARPLRRAIQKHVEDRLSEELLRGNIHKGQHIVLDVEDGEFVVKTTAKTN"}}, "key": {"negative-stain EM": {"molecular_target": "the molecule itself", "test": "negative-stain EM"}, "cryo-EM structure [1]": {"molecular_target": "the molecule itself", "test": "cryo-EM structure"}, "cryo-EM structure [2]": {"molecular_target": "the molecule itself", "test": "cryo-EM structure", "remark": "listed apart in the source"}}, "data": [{"protein": "B1", "values": [{"measurement": "stoichiometry N", "setting": "negative-stain EM", "value": 10}, {"measurement": "stoichiometry N", "setting": "cryo-EM structure [1]", "value": 24}, {"measurement": "stoichiometry N", "setting": "cryo-EM structure [2]", "value": 6}]}]}
